# In article PMC5358875 (Journal of the American Chemical Society, 2017):
# Bridge positions count the residues as written; N and C are the ends. Square brackets hold non-standard residues; d marks the D form. Ends that are not written are not given here. * marks the point of attachment. 5‑TAMRA = CN(C)c1ccc2c(-c3ccc(C(=O)*)cc3C(=O)[O-])c3ccc(N(C)C)cc3[o+]c2c1; n3 = azido unnatural amino acid, 3 CH2 in side chain; Orn(N3) = [N-]=[N+]=NCCC[C@H](N)C(=O)O; Aha = [N-]=[N+]=NCC[C@H](N)C(=O)O; m3N = not defined here; m3c = not defined here; m3 = not defined here; m4 = not defined here; m5 = not defined here; Ahx = NCCCCCC(=O)O
# T1: TNKS2 ARC4 (Homo sapiens, UniProt Q9H2K2)
# T1 construct: GST (cleaved yes); made in house; host or cells: E. coli C41(DE3)
# T1 sequence (Q9H2K2 488-649): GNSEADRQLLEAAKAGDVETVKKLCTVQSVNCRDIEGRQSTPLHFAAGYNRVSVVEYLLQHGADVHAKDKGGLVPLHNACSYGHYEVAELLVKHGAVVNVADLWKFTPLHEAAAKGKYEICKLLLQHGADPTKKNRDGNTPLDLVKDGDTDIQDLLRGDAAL
# T2: human tankyrase 2 ankyrin repeat cluster 4 (TNKS2 ARC4, residues 488-649) (human, UniProt Q9H2K2 488-649)
# T2 sequence (looked up): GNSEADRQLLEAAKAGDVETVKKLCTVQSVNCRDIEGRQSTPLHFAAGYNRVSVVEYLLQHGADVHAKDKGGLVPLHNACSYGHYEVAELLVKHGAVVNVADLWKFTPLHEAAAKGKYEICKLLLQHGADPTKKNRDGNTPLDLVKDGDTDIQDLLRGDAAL
# T3: TNKS2 ARC4 (488–649) (human, UniProt Q9H2K2 488-649)
# T3 chain: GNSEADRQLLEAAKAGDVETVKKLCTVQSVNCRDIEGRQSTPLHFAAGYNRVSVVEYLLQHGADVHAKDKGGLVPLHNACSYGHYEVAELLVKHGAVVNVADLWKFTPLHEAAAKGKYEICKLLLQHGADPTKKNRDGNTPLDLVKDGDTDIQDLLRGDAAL
# T4: human tankyrase 1 ankyrin repeat clusters 2-3 (TNKS1 ARC2-3, residues 315-662) (human, UniProt O95271 315-662)
# T4 sequence (looked up): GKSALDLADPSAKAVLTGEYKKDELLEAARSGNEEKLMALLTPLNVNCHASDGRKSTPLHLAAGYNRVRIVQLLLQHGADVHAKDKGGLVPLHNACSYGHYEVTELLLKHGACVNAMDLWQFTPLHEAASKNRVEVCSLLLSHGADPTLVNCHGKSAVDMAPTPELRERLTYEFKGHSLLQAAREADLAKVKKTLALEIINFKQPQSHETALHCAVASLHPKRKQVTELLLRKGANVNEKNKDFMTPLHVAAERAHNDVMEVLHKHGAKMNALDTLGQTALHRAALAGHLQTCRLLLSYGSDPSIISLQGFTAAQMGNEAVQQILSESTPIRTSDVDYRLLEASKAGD
# T5: TNKS1 ARC2-3 (Homo sapiens, UniProt O95271)
# T5 construct: His6 (cleaved yes); made in house; host or cells: E. coli C41(DE3)
# T5 sequence (O95271 315-662): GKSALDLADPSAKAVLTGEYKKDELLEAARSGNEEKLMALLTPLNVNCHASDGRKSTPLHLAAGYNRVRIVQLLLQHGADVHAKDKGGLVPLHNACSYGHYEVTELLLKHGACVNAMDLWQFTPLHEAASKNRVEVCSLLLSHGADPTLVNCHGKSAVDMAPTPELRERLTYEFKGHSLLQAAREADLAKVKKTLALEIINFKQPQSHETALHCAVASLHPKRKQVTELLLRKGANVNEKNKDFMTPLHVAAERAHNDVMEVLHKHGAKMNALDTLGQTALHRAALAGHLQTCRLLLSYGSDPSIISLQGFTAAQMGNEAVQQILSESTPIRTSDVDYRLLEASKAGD
# B1: hAxin1_1-80: fragment of human Axin1, residues 1–80, containing both TNKS-binding motifs (protein)
# chain: MNIQEQGFPLDLGASFTEDAPRPPVPGEEGELVSTDPRPASYSFCSGKGVGIKGETSTATPRRSDLDLGYEPEGSASPTP
# modifications: left off: GST, end not stated, cleaved
# What was measured:
# [1] = biological target: T1, TNKS2 ARC4; experiment: Direct fluorescence polarization, TNKS2 ARC4; assay type: binding; details: TAMRA-labeled peptides; n.d. = not detectable; read-out: Kd TNKS2 ARC4 (Direct FP)
# Protocol: Fluorescence polarization (FP) assays were performed in 96-well half area black microplates (Corning) on a CLARIOstar microplate reader (BMG labtech) using excitation filter 540–20 nm, dichroic mirror LP 566 nm, and emission filter 590–20 nm. All peptides were dissolved in water as stock solutions. For direct FP assays, the stock concentrations of the TAMRA-labeled peptides were determined based on the 5-TAMRA absorbance at 556 nm (extinction coefficient ε = 89,000 M^–1 cm^–1) measured on a NanoDrop 2000 (Thermo Scientific) and verified by amino acid analysis (Department of Biochemistry, University of Cambridge). TNKS2 ARC4 (488–649) or TNKS1 ARC2–3 (315–662) was diluted 2-fold serially in the assay buffer (50 mM HEPES pH 7.5, 300 mM NaCl, 2 mM DTT, 0.05% (v/v) Tween 20) for a 12-point titration curve in triplicate. The diluted TAMRA-labeled peptide (20 nM, 50 μL) was mixed with the serially diluted TNKS2 ARC4 or TNKS1 ARC2–3 (40–0 μM, 50 μL) in each well and incubated for 30 min at 25 °C before the measurement. Data were analyzed on GraphPad Prism 5.0, and the dissociation constant, Kd, was determined using the following equation assuming the ratio between the concentration of the bound and that of the total TAMRA-labeled peptide is proportional to the fluorescence polarization [drawing 1] where FP is the fluorescence polarization, B is the minimum FP, T is the maximum FP, L0 is the total concentration of TAMRA-labeled peptide, P0 is the total concentration of protein, and Kd is the dissociation constant.
# [2] = biological target: T2, human tankyrase 2 ankyrin repeat …; experiment: fluorescence polarisation; direct: TNKS2 ARC4 or TNKS1 ARC2-3 diluted 2-fold serially (40-0 uM, 50 uL) and mixed with TAMRA-labeled peptide (20 nM, 50 uL); 50 mM HEPES pH 7.5, 300 mM NaCl, 2 mM DTT, 0.05% Tween 20; 30 min, 25 C; details: both partners purified
# [3] = biological target: T3, TNKS2 ARC4 (488–649); experiment: FP
# [4] = biological target: T4, human tankyrase 1 ankyrin repeat …; experiment: fluorescence polarisation; direct: TNKS2 ARC4 or TNKS1 ARC2-3 diluted 2-fold serially (40-0 uM, 50 uL) and mixed with TAMRA-labeled peptide (20 nM, 50 uL); 50 mM HEPES pH 7.5, 300 mM NaCl, 2 mM DTT, 0.05% Tween 20; 30 min, 25 C; details: both partners purified
# [5] = biological target: T5, TNKS1 ARC2-3; experiment: Isothermal titration calorimetry, TNKS1 ARC2-3; assay type: binding; details: unlabeled peptides and Axin proteins
# Protocol: All ITC experiments were performed on a MicroCal iTC200 (GE Healthcare) at 25 °C. TNKS2 ARC4 (488–649), TNKS1 ARC2–3 (315–662), and Axin1 fragments were dialyzed overnight in PBS and 0.5 mM TCEP. Unlabeled peptides were used in the experiments. The peptide was diluted from the stock solution using the same dialysis buffer, and the effect of buffer dilution was accounted for when preparing TNKS samples. TNKS2 ARC4 (160–280 μM) or TNKS1 ARC2–3 (60–150 μM) was titrated into the sample cell containing the peptide (5–15 μM) or Axin1 fragments (8–12 μM) with an initial injection of 0.2 μL over 0.4 s followed by 19 injections of 2 μL over 4 s with a spacing of 60 s, except for TNKS2 ARC4 and Axin1 fragments for which the spacing was 70 s. Control experiments were performed using the same settings as above except that the cell was filled with dialysis buffer. Data were fitted with nonlinear regression using a one-site binding model from Origin 7.0 (MicroCal, Inc.).[90]
molecule,measurement,setting,value
CN(C)c1ccc2c(c1)Oc1cc(N(C)C)ccc1C21OC(=O)c2cc(C(=O)NCCCCCC(=O)N[C@@H](CCCNC(=N)N)C(=O)N[C@@H](CCC(=O)O)C(=O)N[C@H]3CCn4cc(nn4)CCCCc4cn(nn4)CC[C@@H](C(=O)N[C@@H](CCC(=O)O)C(N)=O)NC(=O)CNC(=O)[C@H](CC(=O)O)NC(=O)CNC3=O)ccc21 [T-cp4n2m4],Kd,[1],800 ± 20 nM
CN(C)c1ccc2c(c1)Oc1cc(N(C)C)ccc1C21OC(=O)c2cc(C(=O)NCCCCCC(=O)N[C@@H](CCCNC(=N)N)C(=O)N[C@@H](CCC(=O)O)C(=O)N[C@H]3CCCn4cc(nn4)CCCc4cn(nn4)CCC[C@@H](C(=O)N[C@@H](CCC(=O)O)C(N)=O)NC(=O)CNC(=O)[C@H](CC(=O)O)NC(=O)CNC3=O)ccc21 [T-cp4n3m3],Kd,[1],2600 ± 100 nM
CN(C)c1ccc2c(c1)Oc1cc(N(C)C)ccc1C21OC(=O)c2cc(C(=O)NCCCCCC(=O)N[C@@H](CCCNC(=N)N)C(=O)N[C@@H](CCC(=O)O)C(=O)N[C@H]3CCn4cc(nn4)CN(CC(=O)O)Cc4cn(nn4)CC[C@@H](C(=O)N[C@@H](CCC(=O)O)C(N)=O)NC(=O)CNC(=O)[C@H](CC(=O)O)NC(=O)CNC3=O)ccc21 [T-cp4n2m3N],Kd,[1],1200 ± 20 nM
CN(C)c1ccc2c(c1)Oc1cc(N(C)C)ccc1C21OC(=O)c2cc(C(=O)NCCCCCC(=O)N[C@@H](CCCNC(=N)N)C(=O)N[C@@H](CCC(=O)O)C(=O)N[C@H]3CCn4cc(nn4)-c4cc(C(=O)N[C@@H](CCCNC(=N)N)C(=O)N[C@@H](CCCNC(=N)N)C(=O)N[C@@H](CCCNC(=N)N)C(=O)N[C@@H](CCCNC(=N)N)C(=O)N[C@@H](CCCNC(=N)N)C(=O)N[C@@H](CCCNC(=N)N)C(=O)N[C@@H](CCCNC(=N)N)C(=O)N[C@@H](CCCNC(=N)N)C(=O)N[C@@H](CCCNC(=N)N)C(N)=O)cc(c4)-c4cn(nn4)CC[C@@H](C(=O)N[C@@H](CCC(=O)O)C(N)=O)NC(=O)CNC(=O)[C@H](CC(=O)O)NC(=O)CNC3=O)ccc21 [T-cp4n2m3c-R9],Kd,[1],740 ± 30 nM
CN(C)c1ccc2c(c1)Oc1cc(N(C)C)ccc1C21OC(=O)c2cc(C(=O)NCCCCCC(=O)N[C@@H](CCCNC(=N)N)C(=O)N[C@@H](CCC(=O)O)C(=O)N[C@H]3CCn4cc(nn4)CCCc4cn(nn4)CCC[C@@H](C(=O)N[C@@H](CCC(=O)O)C(N)=O)NC(=O)CNC(=O)[C@H](CC(=O)O)NC(=O)CNC3=O)ccc21 [T-cp4n23m3],Kd,[1],1100 ± 40 nM
CC(C)C[C@H](NC(=O)c1cc2cc(c1)-c1cn(nn1)CC[C@H](NC(=O)[C@H](CCC(=O)O)NC(=O)[C@H](CCCNC(=N)N)NC(=O)CCCCCNC(=O)c1ccc3c(c1)C(=O)OC31c3ccc(N(C)C)cc3Oc3cc(N(C)C)ccc31)C(=O)NCC(=O)N[C@@H](CC(=O)O)C(=O)NCC(=O)N[C@H](C(=O)N[C@@H](CCC(=O)O)C(N)=O)CCn1cc-2nn1)C(=O)N[C@@H](CS)C(=O)N[C@@H](CC(C)C)C(=O)N[C@@H](CCCNC(=N)N)C(N)=O [T-cp4n2m3c-LCLR],Kd,[1],730 ± 20 nM
CN(C)c1ccc2c(c1)Oc1cc(N(C)C)ccc1C21OC(=O)c2cc(C(=O)NCCCCCC(=O)N[C@@H](CCCNC(=N)N)C(=O)N[C@@H](CCC(=O)O)C(=O)N[C@H]3CCn4cc(nn4)-c4cc(C(=O)O)cc(c4)-c4cn(nn4)CC[C@@H](C(=O)N[C@@H](CCC(=O)O)C(N)=O)NC(=O)CNC(=O)[C@H](CC(=O)O)NC(=O)CNC3=O)ccc21 [T-cp4n2m3c],Kd,[1],440 ± 10 nM
{5‑TAMRA-Ahx}-RE[Aha]GDG[Aha]E (triazole 3-7 via m5; reading uncertain) [T-cp4n2m5],Kd,[2],1300 ± 40 nM
same,Kd,[3],1290 nM
{5‑TAMRA-Ahx}-RE[Orn(N3)]GDG[Orn(N3)]E (bridge 3-7; not fully specified (bridges)) [T-cp4n3m4],Kd,[2],1100 ± 30 nM
same,Kd,[3],1110 nM
{5‑TAMRA-Ahx}-RE[n3]GDG[n3]E (bridge 3-7; not fully specified (bridges)) [T-cp4n3m5],Kd,[2],1900 ± 50 nM
same,Kd,[3],1910 nM
{5‑TAMRA-Ahx}-RE[Aha]GDG[Aha]E (triazole 3-7 via m4; reading uncertain) [T-cp4n2m4],Kd,[4],290 ± 8 nM
same,Kd,[3],810 nM
{5‑TAMRA-Ahx}-RE[Aha]GDG[Aha]E-NH2 (triazole 3-7 via m3c; reading uncertain) [T-cp4n2m3c],Kd,[2],400 ± 10 nM
same,Kd,[4],320 ± 3 nM
{5‑TAMRA-Ahx}-RE[Aha]GDG[Aha]E (triazole 3-7 via m3N; reading uncertain) [T-cp4n2m3N],Kd,[4],280 ± 5 nM
{5‑TAMRA-Ahx}-RE[Aha]GDG[Aha]E (triazole 3-7 via m3; reading uncertain) [T-cp4n2m3],Kd,[4],180 ± 7 nM
B1,"Stoichiometry (ITC), TNKS1 ARC2-3",[5],two
